Results as given in patent US6645504B1, “Bystander suppression of type I diabetes by oral administration of glucagon” (AutoImmune Inc., priority 1987, dated 2003).

Key:
EAE [1] = test: EAE after MBP/CFA immunization with oral tolerization and in vivo anti-TGF-β antiserum; parameters: species or system Lewis rats; conditions: orally tolerized animals treated 5 times with 50 μl control serum; score 0-5
EAE [2] = test: Adoptive transfer of disease suppression; type: in vivo, Lewis rats; conditions: naive recipients immunized with MBP/CFA and given OVA subcutaneously; FIG. 9
Procedure: Adoptive Transfer Of Disease Suppression. In order to monitor the adoptive transfer of disease suppression occurring during Bystander Suppression donor rats were fed either 1 mg MBP, OVA, or KLH, five times at 2 day intervals and killed 7-14 days after the final feeding. Spleen cells were harvested, and incubated in vitro with the homologous antigen (50 μg/ml) in proliferation medium, for 72 hours. Cells were injected intraperitoneally: 10^8 cells for whole spleen populations or 5-6×10^7 cells for CD8− or CD4-depleted populations. Recipient animals were irradiated (250 rad) before adoptive transfer, immunized with MBP/CFA 6 hours after adoptive transfer, and challenged 8 hours later with 50 μg OVA.

DTH responses to MBP = test: Delayed type hypersensitivity (DTH) testing, Example 1; type: in vivo, Lewis rats; conditions: orally tolerized animals injected 5 times with 50 μl control serum; 48 hours after MBP challenge
Procedure: Delayed Type Hypersensitivity (DTH) Testing. DTH was tested by injecting 25 μg of MBP in PBS subcutaneously in the ear. Thickness was measured before and 48 hours after challenge, by a blinded observer, using micrometer calipers (Mitutoyo, Japan). Change in ear thickness pre- and post-challenge was recorded for each animal and the result expressed as the mean for each experimental group ±SEM.
Delayed-type hypersensitivity (DTH) responses correlate with the clinical course of EAE and serve as a measure of in vivo cellular immunity to MBP (Brod, S. A. et al. Ann. Neurol. 29:615-622, 1991; Khoury, S. J. et al. Cell. Immunol. 131:302-310, 1990). DTH responses were tested in the same groups described in FIG. 4 by injecting 25 μg of MBP in PBS subcutaneously in the ear. Thickness was measured before and 48 hours after challenge. The change in ear thickness pre- and post-challenge was recorded for each animal and the results expressed as the mean for each experimental group ± SEM.

TGF-β = test: Measurement of TGF-β activity in serum-free culture supernatants of spleen cells; type: cell-based, Lewis rats
Procedure: Measurement Of TGF-β Activity In Serum-Free Culture Supernatants. Serum free culture supernatants were collected as previously described (Kehri, et al. J. Exp. Med. 163: 1037-1050, 1986; Wahl, et al. J. […] Thereafter cells were washed three times and resuspended in serum-free medium for the remainder of the 72 hour culture, collected, then frozen until assayed. Determination of TGF-β content and isoform type in supernatants was performed using a mink lung epithelial cell line (American Type Culture Collection, Bethesda, Md. #CCL-64) according to Danielpour et al. (supra), and confirmed by a Sandwich Enzyme Linked Immunosorbent Assay (SELISA) assay as previously described (Danielpour et al. Growth Factors 2: 61-71,1989). The percent active TGF-β was determined by assay without prior acid activation of the samples.

[3] = test system: DTH responses to MBP or OVA; test: Delayed type hypersensitivity (DTH) testing, Example 2; type: in vivo, Lewis rats; conditions: fed antigen, then immunized with MBP/CFA plus OVA; FIG. 7
Procedure: Delayed Type Hypersensitivity (DTH) Testing. DTH was tested by injecting 50 μg of MBP or OVA in PBS, subcutaneously into the ear. MBP was injected in the left ear and OVA in the right ear in the same animal. Thickness, in units of 0.01 inch, was measured in a blinded fashion, before and 48 hours after challenge, using micrometer calipers (Mitutoyo, Utsunomia, Japan). Change in ear thickness before and after challenge was recorded for each animal, and results were expressed as the mean for each experimental group ± SEM; each group consisted of five animals.

EAE [4] = test: I.V. tolerization with MBP and MBP peptides in EAE induced with whole guinea pig MBP; type: in vivo, SJL/J mice; conditions: days 8 and 9 post immunization, FIG. 16
Description: FIG. 16 is a bar graph showing the effect of intravenous tolerization with MBP and disease inducing and non-inducing fragments thereof on induced EAE expression in SJL/J mice.
Finally, the suppression of EAE by I.V. tolerization with MBP and MBP peptides prior to disease expression (on days 8 and 9 post immunization) was examined.

[5] = test system: Cells, cytokines and activation markers in rat brain; test: Immunohistology of cells, cytokines and activation markers in sections of rat brain; type: in vivo, Lewis rats; parameters: key to IL-4 / TGF-β / PGE: −: absence of labelling; +/−: <10 cells/section or trace labelling; +: few small foci; 2+: multiple foci; 3+: multiple large perivascular collections and diffuse submeningeal staining; conditions: brain sections at day 14 (peak of disease), n = 3/group
Procedure: The effect of oral administration of MBP in rats induced for EAE was analyzed in terms of the cells and factors present in the brains of fed and control rats. Lewis rats were fed MBP five times then immunized with MBP/CFA and their brains were examined immunohistologically at day 14 (peak of disease) and compared to brains from immunized control-fed animals harvested at the same time, and to brains of naive animals. Cryostat sections of cortex and cerebellum were fixed in paraformaldehyde-lysine-periodate for determination of leukocytes and activation antigens, or in acetone for the labelling of cytokines, and stained by a peroxidase-antiperoxidase method (Hancock, W. W., et al., J. Immunol. 138:164, 1987). Results of cytokine and endothelial labelling in 20 consecutive fields were judged as (−) absence of labelling, (+/−) <10 cells/section or trace labelling, (+) few small foci, (2+) multiple foci, and (3+) multiple large perivascular collections and diffuse submeningeal staining.

[6] = spleen cells of MBP-fed animals stimulated with concanavalin-A

B1: MBP: Guinea pig myelin basic protein purified from brain tissue (protein, UniProt P25188 1-167, looked up)
Myelin basic protein: ASQKRPSQRHGSKYLATASTMDHARHGFLPRHRDTGILDSIGRFFGSDRAAPKRGSGKDSHHAARTTHYGSLPQKSQRSQDENPVVHFFKNIVTPRTPPPSQGKGRGLSLSRFSWGAEGQKPGFGYGGRADYKSKGFKGAHDAQGTLSKIFKLGGRDSRSGSPMARR
Q: For B1, which maximal disease severity (EAE [1]) is on record?
A: Its maximal disease severity is 1.0±0.2.

Q: And the “adoptive transfer of protection by spleen cells from fed animals” value (EAE [2])?
A: Its value is “adoptively transferred protection”.

Q: And the “DTH response (change in ear thickness)” value (DTH responses to MBP)?
A: The value was 0.5±0.3.

Q: What about the “active TGF-β” value (TGF-β; [6]) of the same molecule?
A: Its value is “No active TGF-β was observed”.

Q: What about the “latent TGF-β” value (TGF-β; [6]) of the same molecule?
A: The value was 2.1 ± 0.45 ng/mL.

Q: And the “TGF-β in the active form” value (TGF-β; spleen cells of fed animals stimulated in vitro with the fed antigen)?
A: The value was 68±9%.

Q: And the “amount of TGF-β” value (TGF-β; spleen cells of fed animals stimulated in vitro with the fed antigen, serum-free)?
A: The value was 6.8 ± 1.7 ng/mL.

Q: What about the “DTH responses to MBP” value [3] of the same molecule?
A: Its value is “Suppressed DTH responses to MBP”.

Q: And the “suppression of EAE induced with whole guinea pig MBP” value (EAE [4])?
A: The value was “effective in suppressing EAE”.

Q: What about the “IL-2R(p55), PCNA” value [5] of the same molecule?
A: The value was “+/− (<10 cells/section or trace labelling)”.

Q: And the IL-4 [5]?
A: Its IL-4 is “−”.

Q: And the PGE [5]?
A: Its PGE is “−”.

Q: What about the TGF-β [5] of the same molecule?
A: Its TGF-β is 2+.
